In the nanobody polyreactivity screen of Harvey et al. (2022):

Assay: yeast display, Sf9 membrane polyspecificity reagent, FACS + sequencing; frameworks hold sequencing errors
In short: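 Galactose-induced (36–48 hours) yeast carrying a synthetic nanobody display library were exposed to 10% biotinylated, detergent-solubilized Sf9 membrane reagent at 4 °C for 1 hour. FACS followed streptavidin microbead enrichment, using low and high (top ~1%) gates for expression (anti-HA) and reagent binding (streptavidin). Colony PCR, MiSeq 2 × 250 sequencing and CDR-length filtering followed. Labels for polyreactivity reflect the gate of origin.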

| Sequence | polyreactivity (PSR sort gate) |
| --- | --- |
| QVQLVESGGGLVQAGGSLRLSCAASGRTFRRNAMGWYRQAPGKERELVADISNGDSTKYADSVKGRFTISRDNAKNTVYLQMNSLKPEDTAVYYCNAQRYRVVVYNSHGWQTRNYWGQGTQVTVSS | low polyreactivity |
| QVQLVESGGGLVQAGGSLRLSCAASGRTFRRSAMGWYRQAPGKEREFVAAISVSGDSTYADSVKGRFTISRDNAKNTVYLQMNSLKPEDTAVYYCAAVYWYCGWKVDYWGQGTQVTLSS | low polyreactivity |
| QVQLVESGGGLVQAGGSLRLSCAASGRTFRRYAMGWYRQAPGKERELVAAISSSSGTTYYADSVKGRFTISRDNEKNTDYLQMNSLKPEDTAVYYCAAYSRYTTRQYDYWGQGTQVTVSS | high polyreactivity |
| QVQLVESGGGLVQAGGSLRLSCAASGRTFRRYAMGWYRQAPGKERELVAAITRGGSTNYADSVKGRFTISRDNAKDTVYLQMNSLKPEDTAVYYCAKDPLATFYGYWGQGTQVTVSS | high polyreactivity |
| QVQLVESGGGLVQAGGSLRLSCAASGRTFRRYTMGWYRQAPGKERELVAAITTSGGSTYYADSVKGRFTISRDNAKNTVYLQMNSLKPEDTAVYYCAATRRYSGDYWGQGTQVTVSS | high polyreactivity |
| QVQLVESGGGLVQAGGSLRLSCAASGRTFRSNAMGWFRQAPGKERELVAAISRTGRTNYADSVKGRFTISRDNAKNTVYLQMNSLKPEDTAVYYCAARGYSVPWQERYDYWGQGTQVTVSS | high polyreactivity |
| QVQLVESGGGLVQAGGSLRLSCAASGRTFRSNAMGWYRQAPGKERELVAAIRTSGGSTYYADSVKGRFTISRDNAKNTVYLQMNSLKPEDTAVYYCNAELRDLEFDYWGQGTQVTVSS | low polyreactivity |
| QVQLVESGGGLVQAGGSLRLSCAASGRTFRSNAMGWYRQAPGKERELVAVITRSGGSTDYADSVKGRFTISRDNAKNTVYLQMNSLKPEDTAVYYCAVRRYDYWGQVTQVTVSS | high polyreactivity |
| QVQLVESGGGLVQAGGSLRLSCAASGRTFRSYAMGWYRQAPGKEREFVAAISRSGASTRYADSVKGRFTISRDNAKNTVYLQMNSLKPEDTAVYYCAKSWRYSINQSYRAGYNYWGQGTQVTVSS | high polyreactivity |
| QVQLVESGGGLVQAGGSLRLSCAASGRTFRSYAMGWYRQAPGKERELVAAISRGGRTNYADSVKGRFTISRDNAKNTVYLQMNSLKPEDTAVYYCAAAQFRSYWAFDYWGQGTQVTVSS | high polyreactivity |
| QVQLVESGGGLVQAGGSLRLSCAASGRTFRSYAMGWYRQAPGKERELVAGISYNGGSTYYADSVKGRFTISRDNAKNTVYLQMNSLKPADTAGYYCAATHHYRLYDYWGQGTQVNVSS | low polyreactivity |
| QVQLVESGGGLVQAGGSLRLSCAASGRTFRSYTMGWYRQAPGKERELVAAISYNGGSTYYADSVKGRFTISRDNAKNTVYLQMNSLKPEDTAVYYCNKDFDGRFDYWGQGTQVTVSS | high polyreactivity |
| QVQLVESGGGLVQAGGSLRLSCAASGRTFRTNAMAWYRQAPGKERELVAAITSDGTYYADSVKGRFTISRDNAKNTVYLQMNSLKPEDTAVYYWNVDDRENRDDYWGQGTQVTVSS | low polyreactivity |
| QVQLVESGGGLVQAGGSLRLSCAASGRTFRTNAMGWYRQAPGKERELVAAISTGGGITNYADSVKGRFTISRDNAKNTVYLQMNSLKPEDTAVYYCNADIYTWFQIGGYQYDYWGQGTQVTVSS | low polyreactivity |
| QVQLVESGGGLVQAGGSLRLSCAASGRTFRTYAMGWYRQAPGKETELVAANSSGGSTNYADSVKGRFTISRDNEKNTVYLQMNSLKPEDTAVYYCATRPTSDFVKRRVYEWLDYWGQGTQVTVSS | low polyreactivity |
| QVQLVESGGGLVQAGGSLRLSCAASGRTFRTYNMGWYRQAPGKERELVAAISYSGGSTYYADSVKGRFTISRDNAKNTVYLQMNSLKPEDNAVYYCNARRYFWGFDYWGQGTQVNVSS | high polyreactivity |
| QVQLVESGGGLVQAGGSLRLSCAASGRTFRVYAKGWYRQAPGKERDFVAAITDSGGRKYYADSVKGRFTISRDNAKHTVYVQMNSLKPEDTAVYYCNAYEYFVRYDTYLFRYDYWGQGTQVTVSS | low polyreactivity |
| QVQLVESGGGLVQAGGSLRLSCAASGRTFRVYAMGWYRQAPGKEREFVAAISYSGGRTYYADSVKGRFTISRDNAKNTVYLQMNSLKPEDTAVYYCAKRVPYGRGVTGYYWGQGTQVTVSS | high polyreactivity |
| QVQLVESGGGLVQAGGSLRLSCAASGRTFRVYAMGWYRQAPGKERELVASITRGGGTYADSVKGRFTISRDNAKNTVSLQMNSLKPEDTAVYYCNADSRRRRIHYDYWGQGTQVTVSS | high polyreactivity |
| QVQLVESGGGLVQAGGSLRLSCAASGRTFRVYSMGWYRQAPGKERDFVAAITDSGGRTYYADSVKGRFTISRDNAKNTVYLQMNCLKPEDTAVYYCNAYQYYERYDTYLFRYDYWGQGTQVTVSS | low polyreactivity |
| QVQLVESGGGLVQAGGSLRLSCAASGRTFRWNAMGWYRQAPGKERELVAAISSGGSTYYADSVKGRFTISRDNAKNTVYFQMNSLKPEDTAVYYCNKYYVRAYDTQEYDYWGQGTQVTVSS | high polyreactivity |

| Sequence | polyreactivity (PSR sort gate) |
| --- | --- |
| QVQLVESGGGLVQAGGSLRLSCAASGRTFRWYAMGWYRQAPGKERELVAAISQSGGSTYYADSVKGRFTISRDNAKNSVYLQMNSLKPVDTAVYYCAKVTYRGYYSWGQGTQLTVSS | high polyreactivity |
| QVQLVESGGGLVQAGGSLRLSCAASGRTFRWYAMGWYRQAPGKERELVADISSVGSTDYADSVKGRFTISRDNAKNTVYLQMNSLKPEDTAVYYCAADFSPRRYHNRSFGYWGQGTQVTVSS | low polyreactivity |
| QVQLVESGGGLVQAGGSLRLSCAASGRTFRWYAMGWYRQAPGKERELVATITSGGSTNYADSVKGRFTISRDNAKNSVYLQMNSLKPEDTAVYYCAAWSYAYYYRLRYVSHDYWGQGTQVTVSS | high polyreactivity |
| QVQLVESGGGLVQAGGSLRLSCAASGRTFRWYTLGWYRQAPGKERELVAAITSRGGSTYADSVKGRFTISRDNAKNTVYLQMNSLKPEDTAVYYCNAARTYQYDYWGQGTQVTVSS | high polyreactivity |
| QVQLVESGGGLVQAGGSLRLSCAASGRTFRYNAMGWYRQAPGKERELVAAIRYSGGRTYADSVKGRFTISRDNAKNTVYLQMNSLKPEDTAVYYCNADSIRRGYRYDYWGQGTQVTVSS | high polyreactivity |
| QVQLVESGGGLVQAGGSLRLSCAASGRTFRYNAMGWYRQAPGKERELVAAISASGGSTYYADSVKGRFTISRDNAKNTVYLQMNSLKPEDTAVYYCATYYRVGYDYWGQGTQVTVSS | high polyreactivity |
| QVQLVESGGGLVQAGGSLRLSCAASGRTFRYNAMGWYRQAPGKERELVAAISGSGGITYYADSVKGRFTISRDNAKNTVYLQMNSLKPEDTAVYYCAAVYRYNSDPDYDYWGQGTQVTVSS | high polyreactivity |
| QVQLVESGGGLVQAGGSLRLSCAASGRTFRYNAMGWYRQAPGKERELVAAITWSGGSTYYADSVKGRFTISRDNAKNTVYLQMNSLKPEDTAVYYCAKGRRRSHPYDYWGQGTQVTVSS | high polyreactivity |
| QVQLVESGGGLVQAGGSLRLSCAASGRTFRYNAMGWYRQAPGKERELVARISRGGSTYADSVKGRFTISRDNAKNTVYLQMNSLKPEDTAVYYCAAYPTKHNQSEYYYWGQGTQVTVSS | low polyreactivity |
| QVQLVESGGGLVQAGGSLRLSCAASGRTFRYNAMGWYRQAPGKERELVASIRYSSASTYYADSVKGRFTISRDNAKNTVYLQMNSLKPVDTAVYYCAASWYPVFVGYDYWGQGTQVTVSS | high polyreactivity |
| QVQLVESGGGLVQAGGSLRLSCAASGRTFRYNTMGWYRQAPGKERELVAAITWSGGRTYYADSVKGRFTISRDNAKNTVYLQMNSLNPEDTAVYYCNADVPYSRSIYGFYYWGQGTQVTVSS | high polyreactivity |
| QVQLVESGGGLVQAGGSLRLSCAASGRTFRYYAMGWYRQAPGKEREFVAAITKRGGSTYYADSVKGRFTISRDNAKNTVYLQMNSLKAEDTAVYYCAADTSTWAHTRGYDYWGQGTQVTVSS | high polyreactivity |
| QVQLVESGGGLVQAGGSLRLSCAASGRTFRYYAMGWYRQAPGKEREFVAAITRSAVSTYYADSVKGRFTISRDNAKNTVYLQMNSLKPEDTAIYYCAVDSSLVKVGFDYWGQGTQVTVSS | high polyreactivity |
| QVQLVESGGGLVQAGGSLRLSCAASGRTFRYYAMGWYRQAPGKEREFVASIRRGGGSTYYADSVKGRFTISRDNAKNTVYLQMNSLKPEDTAVYYCAAQPYTLSLFRLNYDYWGQGTQVTVSS | low polyreactivity |
| QVQLVESGGGLVQAGGSLRLSCAASGRTFRYYAMGWYRQAPGKERELVAAISRGDSTHYADSVKGRFTISRDNAKNTVYLQMNSLKPEDTAVDYCAAYRGRSVDRQPYYCGQGTQVTVSS | high polyreactivity |
| QVQLVESGGGLVQAGGSLRLSCAASGRTFRYYAMGWYRQAPGKERELVAAISSGGRTNYADSVKGRFTISRDNAKNTVYLQMNSLKPEDTAVYYCAARNTRFWYQNNLYDYWGQGTQVTVSS | high polyreactivity |
| QVQLVESGGGLVQAGGSLRLSCAASGRTFRYYAMGWYRQAPGKERELVAAISWNGANTYYADSVKGRFTISRDNAKNTVYLQMNSLKPEDTAVYYCAANYYRWKGYDYWGQGTQVTVSS | high polyreactivity |
| QVQLVESGGGLVQAGGSLRLSCAASGRTFRYYAMGWYRQAPGKERELVAAITSADSTNYADSVKGRFTISRDNAKNTVYLQMNSLKPEDTAVYYCAAGYVYQAAAKYGRIFWGYDSWGQGSQVTVSS | low polyreactivity |
| QVQLVESGGGLVQAGGSLRLSCAASGRTFRYYAMGWYRQAPGKERELVATISKSGGSTYYADSVKGRFTISRDNAKNTVYLQMNSLKPVDTAVYYCAAVGPYRWYDYWGQGTQVTVSS | high polyreactivity |
| QVQLVESGGGLVQAGGSLRLSCAASGRTFRYYDMGWYRQAPGKERELVAAITSRGGSTYYADSVKGRFTISRDNAKNTVYLQMNSLIPEDTAVYDCNAYPVQIFYLGNRQYNYWGHGTQVTVSS | high polyreactivity |
